Common to all, as to conditions: both partners purified
For assay [1], the target named is T1, His-tagged PEX5 (110–230) (UniProt P50542 110-230).
T1 construct: cytosolic peroxisomal targeting protein PEX5, stretch of the intrinsically disordered N-terminal domain, residues 110-230; His-tagged samples were made with the pETM10 vector; also called hPEX5 (110–230); source: E. coli BL21 (DE3), purified (Ni-NTA, SEC); not shown: His6, N-terminal, kept
As to the kind of experiment: solution-phase LSPR peak shift of nanoparticles (UV–vis); kinetic: peak position scanned every 20–30 s for 25 min after manual addition of PEX14 to immobilised hPEX5 (PEX14:PEX5 10:1 for 1–113), exponential fit; ka and kd derived from kobs and KD; 20 mM sodium phosphate, 100 mM NaCl, 0.025 wt % Tween 20, pH 7.9.

In assay [2] the target is T2, His-tagged PEX5 (1–113) (UniProt P50542 1-113).
T2 construct: cytosolic peroxisomal targeting protein PEX5, stretch of the intrinsically disordered N-terminal domain, residues 1-113; His-tagged samples were made with the pETM10 vector; also called hPEX5 (1–113); source: E. coli BL21 (DE3), purified (Ni-NTA, SEC); not shown: His6, N-terminal, kept
Described as above.

For assay [3], the target named is T2, His-tagged PEX5 (1–113). As to the kind of experiment: solution-phase LSPR peak shift of nanoparticles (UV–vis); binding curve near equilibrium: PEX14 (16–80) titrated onto hPEX5 construct (0.015 μM) immobilised on nanobiosensors (~0.025 nM); 20 mM sodium phosphate, 100 mM NaCl, 0.025 wt % Tween 20, pH 7.9; fit with the Hill–Waud equation.

The source of these data is PMC11959585, “Modular Nanoparticle Platform for Solution-Phase Optical Sensing of Protein–Protein Interactions” (ACS Applied Optical Materials, 2025).

B1: PEX14 (16–80) (domain or fragment, UniProt O75381 16-80, looked up)
chain: TPGSENVLPREPLIATAVKFLQNSRVRQSPLATRRAFLKKKGLTDEEIDMAFQQSGTAADEPSSL
notes: peroxisomal membrane-associated import protein PEX14, globular N-terminal domain, residues 16-80; also called globular N-terminal domain of PEX14; source: E. coli BL21 (DE3), purified (Ni-NTA, TEV cleavage, reverse Ni column, SEC); not shown: His6, N-terminal, cleaved
Turning to B1, in assay [1], the “ka near the first inflection point” value came out at 12400 M^–1 s^–1 and the “kd near the first inflection point” value is 0.00212 s^–1. Moreover, in the assay with His-tagged PEX5 (1–113) [2], the koff amounted to 0.00262 s⁻¹ and the kon came to 9060 M⁻¹ s⁻¹. Moreover, the Kd with His-tagged PEX5 (1–113) [3] was 289 nM.

In general, koff refers to the first-order rate constant of dissociation. One may read the kon as the second-order rate constant of association. The Kd is the free concentration of one partner at which half of the binding sites on the other are occupied at equilibrium, for simple one-to-one binding.
